In patent publication US20190211086A1 (RPEPTIDE, published 2019):
Each block holds one binder with its values, some of them ahead of it.

What was measured:
Tau Isoform 383 [1] = biological target: T1, Tau Isoform 383 (human, UniProt P10636 2-758); assay: ELISA, 100 ng or 50 ng coated tau isoform, antibody 1:1,000 and 1:10,000
T1 construct: Obtained as a lyophilized purified isoform; also called Tau 383; tau383
Protocol: More specifically, the 4G11 mAb was tested in an ELISA against 100 ng of each of the Tau isoforms at a 1:1,000 antibody dilution (FIG. 6A); against 100 ng of each of the Tau isoforms at a 1:10,000 antibody dilution (FIG. 6B); against 50 ng of each of the Tau isoforms at a 1:1,000 antibody dilution (FIG. 6C); and against 50 ng of each of the Tau isoforms at a 1:10,000 antibody dilution (FIG. 6D). […] The highest binding levels were found using 100 ng of the tau isoform with an antibody dilution of 1:1,000.
Antibody 4G11 was tested in an ELISA against 100 ng and 50 ng of the six human Tau isoform using antibodies dilutions of 1:1,000 and 1:10,000. Both 4G11 stored at −80° C. as well as a lyophilized form stored at ambient temperature were compared in this assay and the results are provided in FIGS. 6A-D (the left bar for each isoform are the results of the antibody stored at −80° C. and the right bar for each isoform is the lyophilized form, stored at 25° C.

Tau Isoform 412 = biological target: T2, Tau Isoform 412 (human, UniProt P10636 2-758); assay: screening of hybridoma cell lines; assay not given
T2 construct: Obtained as a lyophilized purified isoform; also called tau412
T2 sequence (P10636 other isoform, or with tags, fused parts or gaps limits assumed): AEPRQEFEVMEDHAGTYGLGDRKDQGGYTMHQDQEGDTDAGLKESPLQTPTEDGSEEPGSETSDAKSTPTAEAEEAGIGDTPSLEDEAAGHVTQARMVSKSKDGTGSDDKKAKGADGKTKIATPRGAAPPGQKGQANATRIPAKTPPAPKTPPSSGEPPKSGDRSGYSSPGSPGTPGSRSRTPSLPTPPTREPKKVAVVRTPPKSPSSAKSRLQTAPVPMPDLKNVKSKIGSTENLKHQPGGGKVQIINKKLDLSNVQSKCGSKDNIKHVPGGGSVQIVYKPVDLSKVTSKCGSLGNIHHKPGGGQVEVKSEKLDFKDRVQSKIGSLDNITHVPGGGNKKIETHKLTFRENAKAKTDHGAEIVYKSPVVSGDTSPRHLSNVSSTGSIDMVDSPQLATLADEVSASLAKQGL

Tau Isoform 381 = biological target: T3, Tau Isoform 381 (human, UniProt P10636 2-758); assay: screening of hybridoma cell lines; assay not given
T3 construct: Obtained as a lyophilized purified isoform; also called tau381
T3 sequence (P10636 other isoform, or with tags, fused parts or gaps limits assumed): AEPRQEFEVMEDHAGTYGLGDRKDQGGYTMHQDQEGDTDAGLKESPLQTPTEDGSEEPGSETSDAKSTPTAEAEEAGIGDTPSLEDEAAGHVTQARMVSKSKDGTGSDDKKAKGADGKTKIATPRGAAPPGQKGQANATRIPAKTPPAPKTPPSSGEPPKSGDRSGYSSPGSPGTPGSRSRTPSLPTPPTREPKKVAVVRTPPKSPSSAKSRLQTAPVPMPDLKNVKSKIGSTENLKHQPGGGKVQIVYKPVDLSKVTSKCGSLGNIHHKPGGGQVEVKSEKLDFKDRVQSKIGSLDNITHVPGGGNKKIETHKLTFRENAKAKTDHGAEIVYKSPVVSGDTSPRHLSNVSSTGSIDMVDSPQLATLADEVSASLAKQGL

Tau Isoform 410 = biological target: T4, Tau Isoform 410 (human, UniProt P10636 2-758); assay: screening of hybridoma cell lines; assay not given
T4 construct: Obtained as a lyophilized purified isoform; also called Tau 410; tau410
T4 sequence (P10636 other isoform, or with tags, fused parts or gaps limits assumed): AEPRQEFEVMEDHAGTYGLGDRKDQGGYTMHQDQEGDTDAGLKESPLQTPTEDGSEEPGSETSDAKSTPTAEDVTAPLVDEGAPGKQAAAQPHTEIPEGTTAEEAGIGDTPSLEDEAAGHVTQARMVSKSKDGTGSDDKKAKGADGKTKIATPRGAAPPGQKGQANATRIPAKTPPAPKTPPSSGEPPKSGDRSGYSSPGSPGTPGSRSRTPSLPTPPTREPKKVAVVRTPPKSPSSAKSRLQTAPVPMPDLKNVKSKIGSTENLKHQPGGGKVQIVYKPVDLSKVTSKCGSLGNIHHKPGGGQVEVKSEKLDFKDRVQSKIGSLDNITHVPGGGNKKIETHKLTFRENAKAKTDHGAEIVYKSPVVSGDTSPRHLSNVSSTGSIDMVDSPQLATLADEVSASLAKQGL

Tau Isoform 441 = biological target: T5, Tau Isoform 441 (human, UniProt P10636 2-758); assay: screening of hybridoma cell lines; assay not given
T5 construct: Obtained as a lyophilized purified isoform; also called tau441
T5 sequence (P10636 other isoform, or with tags, fused parts or gaps limits assumed): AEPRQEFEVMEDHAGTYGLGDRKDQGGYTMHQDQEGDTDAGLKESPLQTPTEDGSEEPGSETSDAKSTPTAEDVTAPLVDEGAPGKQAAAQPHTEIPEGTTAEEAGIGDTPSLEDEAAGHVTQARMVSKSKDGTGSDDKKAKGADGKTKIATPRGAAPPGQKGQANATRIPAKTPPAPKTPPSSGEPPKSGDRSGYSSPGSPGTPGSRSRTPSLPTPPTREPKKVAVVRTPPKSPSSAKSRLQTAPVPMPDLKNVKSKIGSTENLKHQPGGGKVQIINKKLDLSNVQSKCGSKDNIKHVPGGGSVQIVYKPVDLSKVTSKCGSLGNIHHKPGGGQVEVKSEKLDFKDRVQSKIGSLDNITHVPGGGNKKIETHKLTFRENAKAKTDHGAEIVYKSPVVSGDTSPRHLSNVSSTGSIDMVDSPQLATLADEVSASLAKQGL

Tau Isoform 352 [2] = biological target: T6, Tau Isoform 352 (human, UniProt P10636 2-758); assay: not named in the sentence (summary of antibody generation)
T6 construct: Obtained as a lyophilized purified isoform; also called Tau 352; tau352
T6 sequence (P10636 other isoform, or with tags, fused parts or gaps limits assumed): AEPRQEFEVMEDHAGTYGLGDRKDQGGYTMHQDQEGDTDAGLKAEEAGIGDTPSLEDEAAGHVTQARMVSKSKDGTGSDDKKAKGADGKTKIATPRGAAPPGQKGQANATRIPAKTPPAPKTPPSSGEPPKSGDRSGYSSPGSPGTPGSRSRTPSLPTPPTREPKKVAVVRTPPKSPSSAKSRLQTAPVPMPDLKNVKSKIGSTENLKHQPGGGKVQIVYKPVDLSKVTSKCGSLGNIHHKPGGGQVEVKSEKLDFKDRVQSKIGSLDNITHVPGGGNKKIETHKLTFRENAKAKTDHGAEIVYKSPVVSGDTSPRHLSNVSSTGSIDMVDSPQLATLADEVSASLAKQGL

Tau Isoform 383 [3] = biological target: T1, Tau Isoform 383; assay: screening of hybridoma cell lines; assay not given
Tau Isoform 352 [4] = biological target: T6, Tau Isoform 352; assay: screening of hybridoma cell lines; assay not given

T1 sequence (P10636 other isoform, or with tags, fused parts or gaps limits assumed): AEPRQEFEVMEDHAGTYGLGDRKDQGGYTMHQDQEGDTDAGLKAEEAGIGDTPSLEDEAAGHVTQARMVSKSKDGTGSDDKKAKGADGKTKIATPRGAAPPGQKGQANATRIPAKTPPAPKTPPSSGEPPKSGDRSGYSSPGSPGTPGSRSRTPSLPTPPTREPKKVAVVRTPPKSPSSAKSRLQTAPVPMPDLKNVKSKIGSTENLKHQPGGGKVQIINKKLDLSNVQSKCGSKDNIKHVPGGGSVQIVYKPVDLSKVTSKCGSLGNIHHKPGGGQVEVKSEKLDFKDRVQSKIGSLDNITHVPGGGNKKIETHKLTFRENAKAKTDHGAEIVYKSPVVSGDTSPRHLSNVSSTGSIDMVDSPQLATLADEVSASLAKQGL

- binding result (Tau Isoform 383 [1]): binds
- binding result (Tau Isoform 412): binds
- binding result (Tau Isoform 381): binds
- binding result (Tau Isoform 410): binds
- binding result (Tau Isoform 441): binds
- binding result (Tau Isoform 352 [2]): binds
B1: monoclonal antibody 4G11 (antibody, IgA, V domains shown)
VH: EVQLVESGGGLVQPKGSLKLSCAASGFTFNIYAMNWVRQAPGKGLEWVARIRSKSNNYATYYADSMKDRFTISRDDSQSMLYLQMNNLKTEDTAMYYCVRHGNYYFDYWGQGTTLTVSS
VL: ENVLTQSPAIMAASLGQKVTMTCSADSSVSSSYLNWYQQKSGASPKPLIHRTSNLASGVPARFSGSGSGTSYSLTISSVEAEDDATYYCQQWSGYPFIFTFGSGTKLEIK
notes: also called Tau 4G11; mAb 4G11

- binding result (Tau Isoform 383 [3]): binds
- binding result (Tau Isoform 412): binds
- binding result (Tau Isoform 381): binds
- binding result (Tau Isoform 410): binds
- binding result (Tau Isoform 352 [4]): binds
- binding result (Tau Isoform 441): binds
B2: monoclonal antibody 1A6 (antibody, IgM, V domains shown)
VH: DVQLVESGGGLVQPGGSRKLSCAASGFTFSSFGMHWVRQVPEKGLEWVAYISSGSSTIYYADTVKGRFTISRDNPKNTLFLQMTSLRSEDTAMYYCASNQSPTGFAYWGQGTLVTVSA
VL: DVVMTQTPLSLPVSLGDQASISCRSSQSLVHSNGNTYLHWYLQKPGQSPKLLIYKVSNRFSGVPDRFSGSGSGTDFTLKISRVEAEDLGVYFCSQSTHVPLTFGAGTKLELK
notes: Mouse hybridoma antibody (h1A6, ATCC PTA-122038), from a mouse immunized with tau 352; also called Tau 1A6; mAb 1A6
